Measured values: paper PMC12534507

Experiments:
[1] = molecular target: truncated human Derlin-1 (Derlin-1^Δ215-239) (human) (UniProt Q9BUN8); experiment: cryo-EM structure
[2] = molecular target: wild-type C-terminally Strep-tagged Derlin-1 (human) (UniProt Q9BUN8); experiment: cross-linking

truncated human Derlin-1 (Derlin-1^Δ215-239) (from UniProt Q9BUN8) (natural protein)
stoichiometry N [1]: 6

wild-type C-terminally Strep-tagged Derlin-1 (from UniProt Q9BUN8 1-251) (natural protein)
stoichiometry N [2]: 2
